From the DeepSol protein solubility set

Assay: soluble on expression in E. coli; label from the status in PepcDB or PDB records

Soluble on expression in E. coli, not soluble:
MGSDKIHHHHHHMKSDLELKHDVDQELLWDPALDARNVTATVLNRIVTLEGSVNSCAQKLALQKAVQRVAGSRAVVLDLVVRAPSPLRHTDEDLAAAIVSALQWQEGLPEDAIRVVVEHGCVTLTGEVDYGFQRQMAEVLVSRMRGVVGVANQIEVRIDPVAADVSKHIAEALQRRSRRESGGISVDVHDGVVRLTGVADSLLESVWPAASPGAPRACGGWSTSWSSHESRRLALHAFPSCLNQL
MGSDKIHHHHHHMKSEDNGESWSDTYFLTHGEKWHSSACNVLFSNGNVYLAMEQRCRLNEVTGWDVAGLSPTLFRACVEDNLCLASSWSRSEKFIYKEVFDGAKLDFFGIPFYDCETNKPKEIATGINNAPLGWLEANVVKFVDKDHIWHTDLKEVFHLFLRAHTGGVNYAHLFKIEIQDDQSMIPSLEHTPSGQKISYIPFPGGHLKFFIIYDELTRFYWLVSNQATDSMRRVSSLSNIKRYGLPNNERHRLQLHFSRNCVDWCFAGMVACSTNELYSRNYPSAVIKGDDLHIVCRSADEHALNPQYNNMITHHIVSNFRQLIY
MGSDKIHHHHHHMKSIKELYRIGTGPSSSHTMGPRKAAEMFLTRHPEAASFKVTLYGSLAATGKGHMTDVAIIDTLKPTAPVDIIWQPKIFLPFHPNGMNFVALDAGGNELENWTVYSVGGGALAEDNKQPSIESPEVYSMNSMTEILDWCEHTGKSYWEYVKECEDPDIWDYLKEVWDTMKESVQRGLEQEGVLPGPLNLRRKASTYYIRATGYKASLQSRGLVFAYALAVSEENASGGKIVTAPTCGSCGVMPAVLYHLAKSREFSEMRILRALATAGLIGNIVKQNASISGAEVGCQGEVGVACAMASAAANQLFGGSPAQIEYAAEMGLEHHLGMTCDPVCGLVQIPCIERNAYAAARALDANLYSSFTDGMHRVSFDKVIQVMKQTGHDLPSLYKETSEGGLAKDYKPM
MGSDKIHHHHHHMKSRLKKSHRLIRLISNIKSEPYLTVEQLVKIHRISRAQFYKDKAALAELGFEFSWDRRRRRFVISRVAYCPVENLTLSERWALLMAARQLSASGDYSLSFEVLNAARKLAAGLSDPIRETAVSLFNDLVLREGYGCRKEVMNKISMAIFEKRRIILTYKKPLDSQPEREELDPYHLFFQDRSLYVEGYACLRRDVRMFRLNRIRDIAFTPIRFSIPDDYDFGKRYRNAFSVFGGTTTQRVVVRFTAHIRPYIEETLWHHSQVVTIENGGFIRFEVQVAEPREVLWWAFRWGAGAEILEPAWLREKAKCEVEKMAGMYGRGSGSG
MGSDKIHHHHHHMKTFLESLKFPVQEVNKKSSGEKGPGRPPYWEMVFYWTRKPLVGARSVIAGALLPENVDENLFKAAVRLSSPTPHRENPQIPAEFAKYFEGKKLLDPFAGFGSIPLEGLRLGLDVTAVELLPTTYIFLKAVLEYPKKFGKSLVKDVERWGEWITEQLKNDPEIRELYDDDVAVYIGTWEIRCPHCGRWTPAIGNFWLARVKDGKGYKRLAYMKPERKGDEIEIRVIDLNEILDDISKANVDGNEIIFEGENYVKTVEEAVRDGKLKQSDVKIDGNTVIFEVPSANIESRRDQLTCLMCGNVIKYADENGNHHMKLKNGDFYVKFALRKYHEGDERFARQRLLVKVKVKDGDLIFEPATKEDSEKLWKAKEKVREMLEKGDLDVPSEAIPLYENRRITPILSAEKWYQFFNPRQLLTLIKIVRLIREVGRKVEEEKIAEGWNKERAFEYAEAVATYLSTAMLKYAYYNSIVTRWDSTWWKIGETMSTRGIAMNWNWTESPWFSSFGGMIKTLLAILRGVKYLTSALSSSQRTLADFTENSVKVLQGDATSLNLGEKFDVIVTDPPYADDVPYTELSDFYYVWLKRALSDVENGKLIPRFHKEAFFKRIGPKWVEIKTQWQEFAKKEVSTNPGRFMEDENKKEKAVQHFENLFSQAFVAMREHLKDDGVLVTYYAHTDPGSWINLIEAGWRRARLQITRAIPLTTESETSIVSRGKMSLDTSIVAVWRKQKEEKTVQISTLKEEIERKAKSSAREFIEYGYEGLDLLYGVMAAALEEVTKYREISSLKGPLTTEEILNEYVYPATIRGIVNAIAEIEGTGTLHSGTAMFYTAYKILFGNASLSANDIVLLRLATSTDPSELISSGVLKEKRSSSSKEYTLYTPDLLGKKALDTKEFQKFLHEKKLDPVEPKPKNSVDVLQLLEYYSLLGRSRVKEEIEKLRKMWAGEVEEALFIARLVSEYYAEIYIRKIDPVRRMKEEFASEIDRELEKDGFLEVVLMRRLLGYVGGAV
MGSDKIHHHHHHMKTNIVDVFCIIDDFSKLFDETIKKKTLEEADKKCRNRKFKMSDSEVMTILILFHLSRYRDLKAFYLQYITHSCRSEFPHLVSYNRFVELQSRGGGKLIAFLNMCCLGQCTGISFIDSTPLKVCHIKRAHGHRTMRGWAQKGKSTMGWFYGFKLHIVINDRGEIINYQITPGNCDDREPLKDGTFTKNLFGKLIADRGYISQNLFDRLFVDDIHMITKIKKNMKNSLMHLYDKVLLRKRALIETVNDILKNLCRIEHTRHRSVNNFVTNLISGIIAYNILPKKPELNIEIIRNPNFPISA
MGSDKIHHHHHHMKTNLLNYDLQGLTRHFADMGEKPFRAKQVMRWMHQSGAQNFNEMTDLAKSLRHKLNEQAGIEIPKLMMSQKSSDGTRKWLLDVGTGNGVETVFIPESDRGTLCISSQVGCALECTFCSTGRQGFNRNLTAAEIIGQLWWANKAMGVTPKNERVISNVVMMGMGEPMANFDNVVTALSIMLDDHGYGLSRRRVTVSTSGMVPQMDRLRDVMPVALAVSLHASNDEVRNQIVPLNKKYPLKELMAACQRYLVKAPRDFITFEYVMLDGINDKAQHARELIELVTDVPCKFNLIPFNPFPNSGYERSSNENIRVFRDILQQAGFVVTVRKTRGDDIDAACGQLAGQVQDKTRRQQKWQQILIGQQG
MGSDKIHHHHHHMKTQFPSVWQDKLSQKHFSAFTTIQEAAFDPIKNGKSLLGISPTGSGKTLAYLWPSLLTLTPKKAQQLLILAPNTELAGQIFEVAKEWAQPLNLTAQLFLSGSSQKRQIERLKKGPEIIIGTPGRVFDLVKLKKIKMMNVNTIVLDEFDDLLGKSQIHFVKNIVKRVPRDHQMIYMSATNSIDRTFLADDTLEIDLSKQTVDTISHYYITVAKRERGELLRKFSNIPNFRGLVFFNRLSDLGANEERLQFSGASAVSLASDVNIKFRKVILEKFKNHELSLLLATDLVARGIDIELLETVINFDLPRDKDAYNHRAGRTGRMGKNGIVVTFISHPEELKKLKKFAHVSEVYLKNQILHKK
MGSDKIHHHHHHMKTQVLYGKSEIEINVPDDSTIIEPQNIDAIQDYESTIKNVLRNPTNSKPLKEMVNSNDIVSIVISDITRPTPNHILVPLLIEELNHVPRENFVIINGTGTHRDQTRDELIQMLGEDIVNSVKIVHNHCSEKESLAKVGHSQYGCDVYLNKAYVESDFKIVTGFIEPHFFAGFSGGPKGIMPGIAGLETIQTFHNAKMIGDPRSTWGNLEDNPVQDMAREVNRMCKPDFLLNVALNKSKEITAAFAGEIFDTHKEGCAYVKDHAMFKCDQRFDIVIASNSGYPLDQNLYQTVKGMSAASKVVKKDGHIIMVSECADGFPDHGKFAEIFKMADTPQGILELIHNPNFKEVDQWQVQKQASIQTFANVHVYSELTDQQLKDSMLIPTSNIEHTIQELEHRYGRKLTIGVMPQGPLTIPYVEDKE
MGSDKIHHHHHHMKVIKFGGSSLASSQQLQKVLAIVEADQKRKYVIVSAPGKRFDGDTKVTDLLIQYARQTIHHQDTQAVTAAIIDRYAEIGHGFNVPEAQLTPIFETIRNLPKQSYADNTYLMAAFKAHGERLNAQLVAAVFQQSGLNARYLDPKDAGMVVTDVPDDAQIIKSSYDQLAKWANSEQILVIPGFFAYNRNGQICTFSRGGSDITGAIIARGVHAERYENFTDVDAIYAVNPSLVAKPAAISEMTFTEMRELSYAGFSVFHDEALIPAIEDNITVNVKNTNHPEAPGTLIQSTREPNPHYPVTGIASSSSFCSLYLRKYLLNKEVGLGRKILTILENHHISYEHMPSGIDDLTIIFDEHQLTPELEKTLVAEISTAINPDEIYFTHDYSILMLVGENMRNRVGIMSRAATALANDNIKLIMVNQGASEISIMFGVHDNDADQAVIALYKEFFD
MGSDKIHHHHHHMKVLHIFPSAFLGGSELCAIESIESLQKTGVENHVILPAEGAVINRLENLSVSYKIIQHNWWMSSKPWKTYLKVFMLKGFYSSAASIREYIKNNGIDVVITHSIVIPSGALGARLTNTPHVWYLHEYGDLDHQLKFEYGKSFSLNLINKLSKKIIVNSDALKKHFSKKLPAAKINRLYYSVNYPEFTPLTEKPSGELLLCMVGRIAKGKNQLVALKALALLKQEQIFPQLVFVGGADPDYLKLLEAYIKTHELEKQIAFAGQTDRPWDFVMRSQAVVVGSAMEAFGRVTVEAMKAGRIPIVSDTGAGPELITHNENGFLFDPEKEKQLAEIIKQIWLGTDFTEMTVQAKQYALAHFNSKLHGHELLKILTGLV
MGSDKIHHHHHHMKWSEYANLAQQSLEKFYLADTKEQFLNNFYPTENPEEDNKVFNYWWLAHLVEVRLDAYLRTKKQADLEVAEKTYLHNKNRNGGTLIHDFYDDMLWNALAAYRLYKATGKSIYLEDAQLVWQDLVDTGWNDIMGGGFAWRRPQMYYKNTPVNAPFIILSCWLYNELNETKYLEWAMKTYEWQTKVLVREDGFVEDGINRLEDGTIDYEWKFTYNQGVYIGANLELYRITKEAKYLDTANKTAAISLKELTEDGIFKDEGNGGDEGLFKGIFYRYFTDLIEETANKTYRDFVLNSCQILVENAKLDGYLLMGMNWKEKPSGKIPYSAELSGMIALEMAAKLE
MGSDKIHHHHHHMKYDVVVIGAGGAGYHGAFRLAKAKYNVLMADPKGELGGNCLYSGCVPSKTVREVIQTAWRLTNIANVKIPLDFSTVQDRKDYVQELRFKQHKRNMSQYETLTFYKGYVKIKDPTHVIVKTDEGKEIEAETRYMIIASGAETAKLRLPGVEYCLTSDDIFGYKTSFRKLPQDMVIIGAGYIGLEIASIFRLMGVQTHIIEMLDRALITLEDQDIVNTLLSILKLNIKFNSPVTEVKKIKDDEYEVIYSTKDGSKKSIFTNSVVLAAGRRPVIPEGAREIGLSISKTGIVVDETMKTNIPNVFATGDANGLAPYYHAAVRMSIAAANNIMANGMPVDYVDVKSIPVTIYTIPSLSYVGILPSKARKMGIEIVEAEYNMEEDVSAQIYGQKEGVLKLIFERGSMRLIGAWMIGVHSQYLINELGLAVAYGLNAKQLASFAEQHPSTNEIISYTARKVI
MGSDKIHHHHHHMKYMIGIDGGGTKTEAIAFDKDGNELVRATSGFGNILIDFEEALVHIMEAIDQCQKGVLNEHCVCICLGLAGVSGVNTNELTLRLKKKYGTPIEVFNDAMIAHAAVLKGKDGILTIGGTGTICLGKKGEVYEYSGGWGHILGDAGSGYWIGLQALKRMANQLDQGIRLCPLSLRIQDEFQLLTASHIKRLVYRSSKDKVAAITPFVIREARNGNDAAHEIMMQAGKELARITIDVYNKMQLDLLVSIAVSGSILRFVPEIYDEFKKCCEKSVGEVTFVLQSEPAVKGTYYLMKNMYFKK
MGSDKIHHHHHHMLAEERQQMIAHYVDEHQICRVTELCRLTSTSESTIRRDLSEMEDRGLLKRVHGGAQSLQTFGQDVAQQIRFNLNKDDKLAIARLAARKVHPHDYLFLDAGTTIYEMVPFLKEISGLHVVTNGLETALALTDAGIDCCLLGGHVKRQTHAAIGATTVSRLQELNFNAAFIGANALSPAGFLTTPDTEEAAVKRTAIQQSQQAFVLIDRSKFNAVTFAEFAKTDQVTIISRLEAGDREKLPVNIQLEEAE
